In PMC7393678, “First Evidence of Acyl-Hydrolase/Lipase Activity From Human Probiotic Bacteria: Lactobacillus rhamnosus GG and Bifidobacterium longum NCC 2705” (Frontiers in Microbiology, 2020):

Key:
[1] = system: T1, LrLyp; experiment: p-nitrophenol release at […] nm, initial rates, substrate inhibition model; type: biochemical, Lacticaseibacillus rhamnosus; details: pH 7, 37°C, 20 mM McIlvaine buffer, substrate 0.1-9 mM from DMSO/Triton X-100 stock; apparent constant from substrate inhibition fit; read-out: KMapp
T1 construct: C-terminal His6 (pET21b); E. coli; probably monomer

[2] = system: T1, LrLyp; experiment: as above; type: biochemical, Lacticaseibacillus rhamnosus; details: substrate inhibition constant, second site; pH 7, 37°C, 20 mM McIlvaine buffer, substrate 0.1-9 mM
[3] = substrate: CCCCCCCCCCCC(=O)Oc1ccc([N+](=O)[O-])cc1; experiment: purified protein; type: biochemical, Bifidobacterium longum; details: pH 7, 37°C, 20 mM McIlvaine buffer, substrate 0.1-9 mM from DMSO/Triton X-100 stock, apparent constant

Row | Km [1] | Molecule | KIapp [2] | Km [3] | Vmax [3] | kcat [3] | kcat/Km [3]
1 | 11.4 mM | CCCCCCCCCCCC(=O)Oc1ccc([N+](=O)[O-])cc1 [pNP-laurate] | 1.57 mM | – | – | – | –
2 | – | BlLyp (Bifidobacterium longum NCC2705) (protein, C-terminal His6 (pET21b); E. coli; monomer at pH 7) PPDNRRVSRLIRHTGKGLSGSFPFCSCRSWAKVGVFALPNPPLKGPVVMPINEALFAAMKAASYIKPNAGKSYKLQRVAEELIAKQAPANPKCRVEDAFAPMADGYAVPLRVFTPLVAYGAPLPEALEESSANGTPVASAISAILPAVLPKVLPKILIKESTSSGNADGISGNANTELPSVTPRGTILFFHGGGWTTGGINLYTQACAHMAVRLQRRVISVEYRLAPEYRFPTAVEDCYEVARQLFAGELPISGVGGSVDVDHPQSAAPTAPAGGGDISATIPAPDPDSIVLFGDSAGGNLAAAVSLMARDRGEFMPRTQMLLYPVVGNDYNPETSPFESVRTNGTDYILTAQDMADYIDMYRSSVADLTNPYFAPLTAHDLSNQPRTLVLSAEYCPLRDEDEAYARRLQLVNDNVSCYRIHDGIHGYLLNTSAVGLVATTYRIIEHFLDGTPLEPAPGTGTTANAPEGGDAWQDVLGTD | – | 2.56 mM | 0.05 µmol/min/mg | 0.04 s⁻¹ | 16 M⁻¹ s⁻¹
